PMC4760772, “The Development of a Recombinant scFv Monoclonal Antibody Targeting Canine CD20 for Use in Comparative Medicine” (PLoS ONE, 2016)
Numbering of substitutions follows the chain as printed.

T1: biotinylated canine CD20 peptide (biotin-SGSGNCDPANPSEKNSLSIQYCGS) (canine, biotin on the N-terminus)
T1 peptide: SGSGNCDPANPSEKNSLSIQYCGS

T2: biotinylated canine CD20 peptide (biotin-SGSGNCDPANPSEKNSLSIQYCGS) (Canis lupus familiaris, biotin on the N-terminus)
T2 construct: spacer between the biotin and the CD20 stretch; also called biotinylated CD20 peptide
T2 chain: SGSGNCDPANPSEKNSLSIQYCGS

T3: fluorescein-labeled peptide corresponding to human CD20 (NCEPANPSEKNSPSTQYCYS) (Homo sapiens (Human)., fluorescein (FITC) label, position not stated)
T3 construct: also called FITC tagged human CD20 peptide; fluorescent human CD20 peptide
T3 chain: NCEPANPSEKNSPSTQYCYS

B1: monoclonal antibody NCD1.2 (antibody, V domains shown)
VH: VESGGGLVQPGDSLRLSCATSGFTFTDYFMSWVRQPPGKSLEWLGLIRNKVNGYTAEYSASVKGRFTISRDNSRGILYLQMYTLRAEDSATYYCVRASTGTSFVYWGQGTLVTVSA
VL: AAAFSNPVTLGTSVSISCRSSKSLLHRNGFTYLYWYLQRPGQSPQLLIYQMSNLASGVPDRFSSSGSGTDFTLRISRVEAEDVGVYYCAQNLELPFTFGGGTKLELK
notes: VH cloned from the NCD1.2 hybridoma, as the VH of m9 and m10 (scFv-3 and scFv-7; identical VH genes, identical CDRs); the first residues of the cloned VH come from degenerate PCR primers; constant region of a mouse IgG; VL as the VL of m9 (scFv-3) or of m10 (scFv-7); both light chain mRNAs are made by the hybridoma; mouse light chain constant region; not described; IgG; also called NCD1.2 MAB; …
B2: scFv-3 secreted from CHO cells (scFv, V domains shown)
VH: EVNVVESGGGLVQPGDSLRLSCATSGFTFTDYFMSWVRQPPGKSLEWLGLIRNKVNGYTAEYSASVKGRFTISRDNSRGILYLQMYTLRAEDSATYYCVRASTGTSFVYWGQGTLVTVSA
VL: DIVMTQPPAIMSASPGEKVTMTCSASSSVSYMHWYQQKSGTSPKRWIYDTSKLASGVPDRFSSSGSGTDFTLRISRVEAEDVGVYYCAQNLELPFTFGGGTKLEIK
notes: VL of scFv-3, as in m9; linker, as in m9; VH of scFv-3, as in m9; Cloned into the KpnI-EcoRI sites of pCDNA3.1; also called scFv-3 supernatant
B3: scFv-7 secreted from CHO cells (scFv, V domains shown)
VH: B2 VH with N3Q, V4G
VL: IVMTQAAAFSNPVTLGTSVSISCRSSKSLLHRGFTYLYWYLQRPGQSPQLLIYQMSNLASGVPDRFSSSGSGTDFTLRISRVEAEDVGVYYCAQNLELPFTFGGGTKLELK
notes: VL of scFv-7, as in m10; linker, as in m10; VH of scFv-7, as in m10; Cloned into the KpnI-EcoRI sites of pCDNA3.1; also called scFv-7 supernatant

Assays:
[1] = target: T1, biotinylated canine CD20 peptide …; assay: BLI; with DTT
[2] = target: T1, biotinylated canine CD20 peptide …; assay: BLI; without DTT
[3] = target: T2, biotinylated canine CD20 peptide …; assay: BLI; Octet RED, as a1 but in the presence of DTT; relative Kd; settings: both partners purified
[4] = target: T4, bacterially expressed his-tagged canine CD20 protein (amino acids 140–190) (Canis lupus familiaris, UniProt Q3C2E2); assay: immunoblot; purified his-tagged canine CD20 (140-190) after electrophoresis without and with DTT, blotted with NCD1.2; settings: both partners purified
T4 construct: canine CD20, amino acids 140-190 comprising the extracellular domain; also called recombinant canine CD20 protein; His-tagged CD20 protein; source: bacterially expressed, purified by nickel chromatography
T4 sequence (Q3C2E2 140-190): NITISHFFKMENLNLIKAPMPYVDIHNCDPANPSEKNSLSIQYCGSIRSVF

[5] = target: T5, endogenous canine CD20 protein in 3132 canine lymphoma cells (Canis lupus familiaris (Dog) (Canis …, UniProt Q3C2E2)); assay: immunoblot; lysates or chemical fractions of 3132 canine lymphoma cells, and lysates of H1299 cells transfected with human GFP-CD20, blotted with NCD1.2; settings: one partner purified
T5 construct: canine CD20, endogenous protein; also called authentic canine CD20 protein
T5 sequence (Q3C2E2 whole entry): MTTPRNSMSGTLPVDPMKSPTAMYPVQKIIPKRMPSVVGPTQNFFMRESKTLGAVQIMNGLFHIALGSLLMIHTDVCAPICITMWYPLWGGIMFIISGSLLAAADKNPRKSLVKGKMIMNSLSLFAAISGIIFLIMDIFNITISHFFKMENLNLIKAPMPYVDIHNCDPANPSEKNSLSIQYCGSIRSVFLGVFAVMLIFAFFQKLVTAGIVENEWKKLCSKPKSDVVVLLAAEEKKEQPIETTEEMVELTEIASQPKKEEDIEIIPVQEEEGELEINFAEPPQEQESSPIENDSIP

[6] = target: T6, canine CD20 protein in clinically-derived canine cells and tissue (Canis lupus familiaris (Dog) (Canis …, UniProt Q3C2E2)); assay: immunostaining of cells or tissue; immunohistochemistry on formalin fixed paraffin embedded canine lymphoma tissue (tissue micro array), heat induced antigen retrieval; settings: one partner purified
T6 construct: canine CD20 on normal B cells and B-cell lymphoma cells of dogs; also called membranous CD20; CD20 in canine tissue
T6 sequence (Q3C2E2 whole entry): as above

[7] = target: T2, biotinylated canine CD20 peptide …; assay: BLI; Octet RED, biotinylated CD20 peptide on streptavidin biosensors, antibody 32 nM to 0.5 nM in solution, 30°C, PBS pH 7.4 with 0.02% Tween 20, 0.005% sodium azide, 100 μg/mL BSA; global fit 1:1; relative Kd; absence of DTT; settings: both partners purified
[8] = target: T3, fluorescein-labeled peptide …; assay: fluorescence polarisation; antibody titrated against 30 nM fluorescein-labeled human CD20 peptide in PBS, 0.05% Tween-20; 1 hr at room temperature, read at 21°C; purified mouse immunoglobulins subtracted as nonspecific binding; settings: both partners purified
[9] = target: T4, bacterially expressed his-tagged canine …; assay: ELISA; CHO supernatants (diluted 1:40 or 1:80) on His-tagged CD20 protein or on biotinylated CD20 peptide; detected with peroxidase conjugated protein A, TMB, OD 450 nm; settings: one partner purified

| Binder | koff [1] [s⁻¹] | koff [2] [s⁻¹] | Kd [3] [nM] | binding result [4] | binding result [5] | binding result [6] | Kd [7] [nM] | binding result [8] | binding result [9] |
| --- | --- | --- | --- | --- | --- | --- | --- | --- | --- |
| B1 | 3.41e-05 | 3.19e-05 | 0.31 | binds | binds | binds | 0.34 | binds | – |
| B2 | – | – | – | – | – | – | – | – | binds |
| B3 | – | – | – | – | – | – | – | – | binds |
